# Residue numbers refer to the chain shown, from its start.
# T1: recombinant human DLL3 (human, UniProt Q9NYJ7 27-492)
# T1 sequence: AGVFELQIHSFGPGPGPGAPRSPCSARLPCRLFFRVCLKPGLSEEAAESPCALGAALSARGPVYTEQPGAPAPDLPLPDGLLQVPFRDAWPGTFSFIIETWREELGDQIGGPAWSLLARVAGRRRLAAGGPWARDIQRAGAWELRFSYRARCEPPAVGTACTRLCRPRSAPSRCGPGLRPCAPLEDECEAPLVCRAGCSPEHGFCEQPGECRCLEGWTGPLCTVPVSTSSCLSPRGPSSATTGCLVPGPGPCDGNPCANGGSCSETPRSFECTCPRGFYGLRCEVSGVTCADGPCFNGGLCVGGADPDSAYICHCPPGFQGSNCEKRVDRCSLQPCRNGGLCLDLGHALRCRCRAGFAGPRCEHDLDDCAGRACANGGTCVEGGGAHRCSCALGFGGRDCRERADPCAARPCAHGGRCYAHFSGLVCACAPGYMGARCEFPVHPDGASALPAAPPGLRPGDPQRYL
# T2: Cynomolgus DLL3 ECD with Myc-tag on N-terminus and His-tag on C-terminus (cynomolgus)
# T2 construct: also called Myc-cynoDLL3-His; Cyno DLL3
# T2 chain: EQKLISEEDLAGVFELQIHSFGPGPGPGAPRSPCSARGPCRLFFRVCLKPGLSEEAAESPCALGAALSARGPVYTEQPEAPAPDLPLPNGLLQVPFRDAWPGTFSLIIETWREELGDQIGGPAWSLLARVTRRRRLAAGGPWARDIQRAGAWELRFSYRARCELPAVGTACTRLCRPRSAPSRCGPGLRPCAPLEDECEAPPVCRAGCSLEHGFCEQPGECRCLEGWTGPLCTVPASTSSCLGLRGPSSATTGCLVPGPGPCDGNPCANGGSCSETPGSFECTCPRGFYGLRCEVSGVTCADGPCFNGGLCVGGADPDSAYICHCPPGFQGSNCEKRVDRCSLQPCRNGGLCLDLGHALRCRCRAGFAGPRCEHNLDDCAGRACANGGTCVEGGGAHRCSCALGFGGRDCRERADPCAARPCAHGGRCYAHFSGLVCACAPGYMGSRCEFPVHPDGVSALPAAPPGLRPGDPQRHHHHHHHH
# B1: DLA0316/TR01 (bispecific antibody, V domains shown)
# VH 1: QEQLVESGGGLVQPGGSLKLSCKVSGFDFSNYGVSWVRQAPGKGLEWIGYIDPAFGRTYYASWVNGRFTISSHNAQNTLYLQLNSLTAADTATYFCVRVALVVAGVAYYGMDVWGPGTLVTVSS
# VL 1: ADVVMTQTPASVEAAVGGTVTINCQASQNIYSYLSWYQQKPGQPPKLLIYRTSTLASGVPSRFKGSGSGTQFTLTISDLECADAATYYCQSYYYSSGSSYGAFAFGGGTEVVVK
# VH 2: QVQLVESGGGVVQPGGSLRLSCAASGFTFSNAWMHWVRQAPGKGLEWVAQIKDKSQNYATYVAESVKGRFTISRADSKNSIYLQMNSLKTEDTAVYYCRYVHYAAGYGVDIWGQGTTVTVSS
# VL 2: DIVMTQSPLSLPVTPGEPASISCRSSQPLVHSNRNTYLHWYQQKPGQAPRLLIYKVSNRFSGVPDRFSGSGSGTDFTLKISRVEAEDVGVYYCGQGTQVPYTFGQGTKLEIK
# notes: IgG-type anti-DLL3/CD3 bispecific made by Fab arm exchange
# B2: D30316AE03/TR01 (bispecific antibody, V domains shown)
# VH 1: EVQLVESGGGLVQPGGSLRLSCAASGFTFSNYGVSWVRQAPGQGLEWMGYIDIAFGRTYYASWVTGRITINPDTSKNQFSLQLNSVTPEDTAVYYCARVALVVAGVAYYGMDVWGQGTLVTVSS
# VL 1: DIVMTQSPDSLAVSLGERATINCQASQNIYSYLSWYQQKPGKAPKLLIYRTSTLASGVPDRFSGSGSGTDFTLKISRVEAEDVGVYYCQSYYYSSGSSYGAFAFGQGTKVEIK
# VH 2: B1 VH 2
# VL 2: B1 VL 2
# notes: as for B1
# B3: DLA0841/TR01 (bispecific antibody, V domains shown)
# VH 1: QEQLVESGGGLVQPEGSLTLTCTASGFSFSSSYDMCWVRQAPGKGPEWIACIYTGDGSTDYASWAKGRFTVSKASSTTVTLQMTSLAVADTATYFCARNSGYGYFGLWGPGTLVTVSS
# VL 1: QVLTQTPSPVSAAVGGTVTISCQSTESVYGSDWLSWYQQKPGQPPKVLIYQASNLEIGVPSRFKGSGSGTQFTLTISGAQCDDAATYYCQGYYSGYIYAFGGGTEVVVK
# VH 2: B1 VH 2
# VL 2: B1 VL 2
# notes: as for B1
# B4: D30841AE08/TR01 (bispecific antibody, V domains shown)
# VH 1: QVTLRESGPALVKPTQTLTLTCTFSGFSLSSSYDMGWVRQAPGQGLEWMGTIYTGDYSTDYASWAKGRVTISVDTSKNQFSLKLSSVTAADTAVYYCARHTGYGYFGLWGQGTLVTVSS
# VL 1: DIQLTQSPSFLSASVGDRVTITCQSTESVYGSDWLSWYQQKPGQPPKLLIYQASNLEIGVPSRFSGSGSGTDFTLTINSLEAEDAATYYCQGYYSGYIYAFGGGTKVEIK
# VH 2: B1 VH 2
# VL 2: B1 VL 2
# notes: as for B1
# B5: D30841AE11/TR01 (bispecific antibody, V domains shown)
# VH 1: B4 VH 1
# VL 1: B4 VL 1 with I98S
# VH 2: B1 VH 2
# VL 2: B1 VL 2
# notes: as for B1
# B6: D30316AE03/AN121 (bispecific antibody, V domains shown)
# VH 1: B2 VH 1
# VL 1: B2 VL 1
# VH 2: QVQLVESGGGLVQPGRSLRLSCAASGFTFSNAWMHWVRQAPGKGLEWVAQIKDRANSYNTYYAESVKGRFTISRDDSKNSIYLQMNSLKTEDTAVYYCRYVHYTTYAGSSFSYGVDAWGQGTTVTVSS
# VL 2: B1 VL 2
# notes: as for B1
# B7: D30316AE03/AN104 (bispecific antibody, V domains shown)
# VH 1: B2 VH 1
# VL 1: B2 VL 1
# VH 2: B6 VH 2 with A55Q, S57G, Y106T, A107Y, S110Y, F111Y, S112Q, Y113F
# VL 2: B1 VL 2
# notes: as for B1
# B8: D30316AE03/AN119 (bispecific antibody, V domains shown)
# VH 1: B2 VH 1
# VL 1: B2 VL 1
# VH 2: B6 VH 2 with R54K, A55Q, N59A, T60A, A107S, S109G, S110F
# VL 2: B1 VL 2
# notes: as for B1
# B9: D30316AE03/AN395 (bispecific antibody, V domains shown)
# VH 1: B2 VH 1
# VL 1: B2 VL 1
# VH 2: QVQLVESGGGLVQPGRSLRLSCAASGFTFSNAWMHWVRQAPGKGLEWVAQIKDKANGYNAYYAPSVKGRFTISRDDSKNSIYLQMNSLKTEDTAVYYCRYVHYTTFGFGLSYGGVDAWGQGTTVTVSS
# VL 2: B1 VL 2
# notes: as for B1
# Target: T1, recombinant human DLL3
# Experiment: SPR Biacore 8K, 37 C, pH 7.4; bispecific captured on anti-human Fc, DLL3 as analyte, 1:1 model
# Description: (§1) Binding affinity of anti-DLL3 arm in the anti-DLL3/CD3 antibodies to human or cynomolgus DLL3 at pH 7.4 were assessed at 37 degrees C. using Biacore 8K instrument (GE Healthcare). Anti-human Fc (GE Healthcare) was immobilized onto all flow cells of a CM4 sensor chip using amine coupling kit (GE Healthcare). The bispecific antibodies were captured onto the anti-Fc sensor surfaces, and then recombinant human or cynomolgus DLL3 was injected over the flow cell. All antibodies and analytes were prepared in ACES pH 7.4 containing 20 mM ACES, 150 mM NaCl, 0.05% Tween 20, 0.005% NaN₃. Sensor surface was regenerated each cycle with 3M MgCl₂.
Binder,Kd,koff,kon
B1,0.0353 nM,8.72e-05 s⁻¹,2.47e+06 M⁻¹ s⁻¹
B2,0.0261 nM,6.11e-05 s⁻¹,2.34e+06 M⁻¹ s⁻¹
B3,0.0639 nM,0.000247 s⁻¹,3.87e+06 M⁻¹ s⁻¹
B4,0.0872 nM,0.000215 s⁻¹,2.47e+06 M⁻¹ s⁻¹
B5,0.172 nM,0.000325 s⁻¹,1.88e+06 M⁻¹ s⁻¹

# Target: T2, Cynomolgus DLL3 ECD with Myc-tag on …
# Experiment: as above
# Description: as §1
Binder,Kd,koff,kon
B1,0.0199 nM,4.96e-05 s⁻¹,2.49e+06 M⁻¹ s⁻¹
B2,0.0117 nM,2.72e-05 s⁻¹,2.32e+06 M⁻¹ s⁻¹
B3,0.0621 nM,0.000238 s⁻¹,3.83e+06 M⁻¹ s⁻¹
B4,0.0737 nM,0.000191 s⁻¹,2.59e+06 M⁻¹ s⁻¹
B5,0.142 nM,0.000265 s⁻¹,1.86e+06 M⁻¹ s⁻¹

# Target: recombinant human CD3eg protein (CD3 epsilon-gamma, heterodimer of CD3 epsilon and CD3 gamma) (human, UniProt P07766 23-126; P09693 23-116)
# Sequence (P07766 23-126 limits assumed, chain 1 of 2): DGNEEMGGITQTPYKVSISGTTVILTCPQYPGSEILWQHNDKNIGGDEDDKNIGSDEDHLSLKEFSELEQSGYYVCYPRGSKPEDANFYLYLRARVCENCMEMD
# Sequence (P09693 23-116 limits assumed, chain 2 of 2): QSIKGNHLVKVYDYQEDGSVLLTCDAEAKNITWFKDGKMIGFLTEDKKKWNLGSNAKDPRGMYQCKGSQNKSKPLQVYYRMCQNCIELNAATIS
# Experiment: SPR Biacore 8K, 37 C, pH 7.4; bispecific captured on anti-human Fc, human CD3eg as analyte, 1:1 model
# Description: as §1, with “of the anti-CD3” for “of anti-DLL3”, “arm of” for “arm in”, “anti-DLL3/CD3 bispecific” for “anti-DLL3/CD3”, “to CD3” for “to human or cynomolgus DLL3”, “7.4 was” for “7.4 were”, “human CD3eg proteins (CD3 epsilon-gamma, heterodimer of CD3 epsilon and CD3 gamma)” for “human or cynomolgus DLL3”
Binder,Kd,koff,kon
B2,127 nM,0.0169 s⁻¹,134000 M⁻¹ s⁻¹
B6,7.55 nM,0.000744 s⁻¹,98600 M⁻¹ s⁻¹
B7,37.3 nM,0.00266 s⁻¹,71400 M⁻¹ s⁻¹
B8,11 nM,0.0016 s⁻¹,145000 M⁻¹ s⁻¹
B9,30.7 nM,0.00743 s⁻¹,242000 M⁻¹ s⁻¹
